Positions count from the first letter of the chain named. Bridge positions count the residues as written; N and C are the ends. Ends that are not written are not given here.
T1: recombinant cyno hepcidin (SEQ ID NO: 6) (cynomolgus monkey)
T1 construct: also called rcyno hepcidin; rcynoHepc
T1 peptide: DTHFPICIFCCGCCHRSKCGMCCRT

T2: recombinant mouse hepcidin (SEQ ID NO: 80) (mouse, not fully specified)
T2 construct: also called murine hepcidin
T2 peptide: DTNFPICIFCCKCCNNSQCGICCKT

T3: hepcidin 20 (SEQ ID NO: 96) (human)
T3 construct: also called Hepc20; hepc20
T3 peptide: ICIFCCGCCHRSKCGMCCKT

T4: recombinant human prohepcidin (SEQ ID NO: 102) (human)
T4 chain: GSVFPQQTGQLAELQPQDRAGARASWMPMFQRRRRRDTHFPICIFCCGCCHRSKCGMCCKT

B1: rat anti-human hepcidin monoclonal antibody R9 (antibody, V domains shown)
VH: QVTLKESGPGILQPSQTLSLTCSFSGFSLSTSGICVSWIRQPSGKGLEWLATICWEDSKGYNPSLKNRLTISKDTSNNQAFLKITSVDTADTAIYYCARPLNYGGYSELELDYWGQGVMVTVSS
VL: DIQMTQSPSLLSASVGDRVTLSCKASQNIYKYLNWYQQKLGEAPKLLIYYTNSLQTGIPSRFSGSGSGTDFTLTISSLQPEDVATYYCYQYNSGPTFGAGTKLELK
notes: Rat hybridoma monoclonal; also called mAb R9
B2: human hepcidin (SEQ ID NO: 9), mature, correctly folded (peptide)
peptide: DTHFPICIFCCGCCHRSKCGMCCKT
modifications: disulfide 10-13, 11-19, 14-22, 7-23; not fully specified
notes: 25-residue mature peptide with four disulfides (C7-C23, C10-C13, C11-C19, C14-C22); Recombinant (E. coli or CHO) or synthetic, by assay; also called rhHepc; shHepc
B3: murine anti-human hepcidin monoclonal antibody 2.7 (antibody, V domains shown)
VH: QIQLVQSGPELKKPGETVKISCKASGYTFTTYGMSWVKQAPGKGLKWMGWINTYSGVPTYADDFKGRFAFSLETSASTAYLQINNLKNEDTATYFCGRDHYYGEVAYWGQGTLVTVSA
VL: DIVLTQSPASLAVSLGQRATISCRASESVDSYGNSFMHWYQQKPGQPPKLLIYRASNLESGIPARFSGSGSRTDFTLTINPVEADDVATYYCHQSNEEYTFGGGTKLEIK
notes: Mouse hybridoma monoclonal; Murine IgG1 was used as its isotypic control; also called Ab2.7; Ab 2.7
B4: murine anti-human hepcidin monoclonal antibody Ab43 (antibody, V domains shown)
VH: QIQLVQSGPELKKPGETVKISCKASGYTFTTYGMSWVKQAPGKGLKWMGWINTYSGVPTYADDFKGRFAFSLETSASTAYLQINNLKNEDTATYFCASLWYYGRAFDYWGQGTTLTVSS
VL: B3 VL with D1N, R54L, I62V, N80D, V87A, H93Q, S95N, E98D, Y99R
notes: Mouse hybridoma monoclonal; also called mAB 43
B5: murine anti-human hepcidin monoclonal antibody 2.41 (antibody, V domains shown)
VH: B3 VH with Y54S, K65M, G97A, H100R
VL: B3 VL with Y32F, Q42L, T89I, H93Q
notes: Mouse hybridoma monoclonal

Key:
[1] = molecular target: B2; test: BIAcore: 1 nM antibody over immobilized rhHepc surface, no competitor (reference)
Procedure: (§1) Recombinant hepcidin was immobilized on a CM5 chip according to manufacturer's instructions at a flow rate 10 μL/min of running buffer (DPBS: Dulbecco's Phosphate Buffer Saline1X, GIBCO 14190, with 0.005% BIAcore surfactant P-20). The carboxylated matrix of the sensor chip was first activated with a 100 μL injection of 1:1 mixture of EDC (75 mg/mL N-ethyl-N-(dimethylamine-propyl)carbodiimide in water, from Biacore) and NHS (11.5 mg/mL N-hydroxysuccinimide in water, from Biacore). […] The excess reactive groups of the sensor chip were deactivated with an injection of 100 μL of ethanolamine (1.0M, from Biacore).
(§2) The binding signal obtained was proportional to the concentration of free antibody in solution at equilibrium.

[2] = molecular target: T1, recombinant cyno hepcidin (SEQ ID NO: 6); test: BIAcore solution equilibrium: fixed rcynoHepc + varied antibody, free rcynoHepc read on immobilized antibody surface
Procedure: The immobilization was performed at a flow rate 10 uL/min of running buffer (DPBS: Dulbecco's Phosphate Buffer Saline1, GIBCO 14190, with 0.005% BIAcore surfactant P-20) according to manufacturer's instructions. The carboxylated matrix of the sensor chip was first activated with a 100 ul injection of 1:1 mixture of EDC (75 mg/mL N-ethyl-N-(dimethylamine-propyl)carbodiimide in water, from BIAcore) and NHS (11.5 mg/mL N-hydroxysuccinimide in water, from BIAcore). 180 ul of antibodies (˜20 ug/ml in 10 mM Na-acetate pH4.0) was injected to immobilize onto the sensor chip at 30 uL/min. The excess reactive groups of the sensor chip were deactivated with an injection of 100 uL of ethanolamine (1.0M, from BIAcore).
The binding signal obtained is proportional to the free rcynoHepc in solution at equilibrium. The equilibrium dissociation constant (KD) was calculated from nonlinear regression analysis of the competition curves using a one-curve one-site homogeneous binding model (KinEx™ software, Sapidyne Instruments Inc., Boise Id.).

[3] = molecular target: B2; test: BIAcore solution equilibrium: fixed antibody incubated with varied hepcidin, free antibody read on immobilized hepcidin chip
Procedure: (§3) Preparation of BIAcore chip surfaces: Immobilization of proteins to a BIAcore was performed according to manufacturer's instructions at a flow rate 10 μL/min of running buffer (DPBS: Dulbecco's Phosphate Buffer Saline1X, GIBCO 14190, with 0.005% Biacore surfactant P-20). The carboxylated matrix of the sensor chip was first activated with a 100 μL injection of 1:1 mixture of EDC (75 mg/mL N-ethyl-N-(dimethylamine-propyl)carbodiimide in water, from BIAcore) and NHS (11.5 mg/mL N-hydroxysuccinimide in water, from Biacore). […] The excess reactive groups of the sensor chip were deactivated with an injection of 100 μL of ethanolamine (1.0M, from Biacore).
(§4) Equilibrium binding analysis of antibody/hepcidin interactions on immobilized hepcidin surface: Fixed concentrations of antibody were incubated with various concentrations of hepcidin at room temperature for several hours before run through the immobilized hepcidin surface. After each sample injection, the surfaces were regenerated by injecting 30 μL […] glycine, pH1.5. The binding signal obtained is proportional to the free antibody in solution at equilibrium. The equilibrium dissociation constant (KD) was calculated from nonlinear regression analysis of the competition curves using a one or dual-curve one-site homogeneous binding model (KinExA™ software, Sapidyne Instruments Inc., Boise Id.).

[4] = molecular target: T2, recombinant mouse hepcidin (SEQ ID NO: …); test: as above
Procedure: as §3, §4

[5] = molecular target: B2; test: BIAcore: 1 nM antibody preincubated with 10 nM of this hepcidin form in solution, then run over immobilized rhHepc surface; % = free antibody still binding the surface (low % = strong binding to the solution form)
Procedure: as §1, §2

[6] = molecular target: T3, hepcidin 20 (SEQ ID NO: 96); test: as above
Procedure: as §1, §2

[7] = molecular target: B3; test: competitive binding assay: unlabeled human hepcidin against 0.25 nM biotinylated hepcidin for Ab2.7; standards in rabbit serum
Procedure: (§5) Hepcidin levels were determined using hepcidin standards of varying concentrations (from 1.4-300 ng/ml) spiked into buffer (5% BSA:I-block), rabbit serum, or pooled human serum. […] 25 μl/well of mixed solution was added to Black half area plates coated with 1-2 μg/mL G×M capture antibody. 25 μL/well of biotinylated hepcidin was added at 0.25 nM. The plate was covered with plate film sealer and incubated at room temperature (25° C.) on a plate shaker at around ≦200 RPM for around 60 minutes. The plate was washed and then 50 μL/well of Poly horseradish peroxidase amplification reagent at 1:2000 was added. The plate was allowed to sit for 30 minutes and was then washed with a plate washer using PBS or KPL buffer 6 times. The plate was patted dry and a luminescent substrate (Femto or Pico) was quickly added. The plate was read with luminometer (ex: Lmax 340) for 1 second using Femto or Pico Substrate. […] (FIG. 30).

[8] = molecular target: B3; test: competitive binding assay: unlabeled human hepcidin against 0.25 nM biotinylated hepcidin for Ab2.7; standards in 5% BSA:I-block buffer
Procedure: as §5

[9] = molecular target: T1, recombinant cyno hepcidin (SEQ ID NO: 6); test: KinExA solution equilibrium: fixed antibody + varied rcyno hepcidin, free antibody captured on rcyno hepcidin-coated beads
From the text: Reacti-Gel 6× beads (Pierce, Rockford, Ill.) were pre-coated with rcyno hepcidin (SEQ ID NO: 6) and blocked with BSA according to manufacturer's instructions. […] The amount of the bead-bound antibody was quantified by fluorescently (Cy5)-labeled goat anti-murine-IgG (H+L) antibody (Jackson Immuno Research, West Grove, Pa.). The binding signal is proportional to the concentration of free antibody at equilibrium. Dissociation equilibrium constant (KD) was obtained from nonlinear regression of the competition curves using a dual-curve one-site homogeneous binding model (KinExA™ Pro software).

[10] = molecular target: T4, recombinant human prohepcidin (SEQ ID …); test: sandwich immunoassay: Ab2.7 capture, biotinylated rabbit anti-prohepcidin polyclonal detection; the prohepcidin concentration is varied (buffer curves)
Procedure: In order to reliably assess prohepcidin concentrations, a prohepcidin standard was measured after incubation for 60 minutes at 25° C. in a range of different buffers or sera.

[11] = molecular target: T3, hepcidin 20 (SEQ ID NO: 96); test: BIAcore solution competition: 1 nM antibody preincubated with 10 nM antigen, then immobilized hepcidin surface; '-' = no inhibition by the solution form
Procedure: as §1, §2

Binder	Binding to Hepcidin Surface (%) [1] [%]	Kd [2] [nM]	Kd [3] [nM]	Kd [4] [nM]	Binding to Hepcidin Surface (%) [5] [%]	Binding to Hepcidin Surface (%) [6] [%]	IC50 (read off the curve) [7] [ng/mL]	IC50 (read off the curve) [8] [ng/mL]	Kd [9] [nM]	EC50 (read off the curve) [10] [ng/mL]	binding result [11]
B1	100	~10	21	20	79	88					
B2							~7	~7			
B3	100		0.11	40	2	3			~0.016	~10	
B4	100	~0.1	0.56	14	11	100					no binding (tested: 10 nM)
B5	100		0.05	30	0	1			~0.009		

From patent US20080213277A1 (Amgen, published 2008)
